Data taken from the RNAGym collection of RNA variant scans (doi:10.1093/molbev/msab373).

B1: Azoarcus group I ribozyme (parent)
chain: GUGCCUUGCGCCGGGAAACCACGCAAGGGAUGGUGUCAAAUUCGGCGAAACCUAAGCGCCCGCCCGGGCGUAUGGCAACGCCGAGCCAAGCUUCGGCGCCUGCGCCGAUGAAGGUGUAGAGACUAGACGGCACCCACCUAAGGCAAACGCUAUGGUGAAGGCAUAGUCCAGGGAGUGGCGAAAGUCACACAAACCGG

Variants of: B1
Experiment: reverse-splicing fitness (ratio to wild type); higher = more active; in vitro selection; Mg2+ level not given
Procedure, shortened: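 An in vitro group I ribozyme library with randomized positions was T7-transcribed and gel-purified. In triplicate, 10 pmol RNA in EPPS pH 7.5 was reacted with 50 pmoles of a 30-nt RNA substrate for 1 h at 37 °C across several added MgCl2 levels (1–48 mM), then stopped with EDTA. Products were reverse transcribed from a substrate-complementary primer, PCR-amplified and sequenced (HiSeq 4000). Fitness is a variant's read proportion after selection over that before, normalised to wild type.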

First: A111G C150U C169A
Second: A111G C150U C169G
The reverse-splicing fitness of the first is lower: 0.0299 for the first, 0.0695 for the second.

First: A111G C150U C169U
Second: A111G C150A C169U U176A
The reverse-splicing fitness of the first is higher: 0.112 for the first, 0.0199 for the second.

Going from A111G C150A C169U U176C to A111G C150A C169U U176G, the reverse-splicing fitness falls from 0.0264 to 0.00628.

First: A111U A120C C150U U176C
Second: A111U A120C C150U U176A
The reverse-splicing fitness of the first is higher: 0.204 for the first, 0.154 for the second.

First: A111U A120C C150U U176G
Second: A111U A120C A145U C150A C169G U176C
The reverse-splicing fitness of the first is higher: 0.0321 for the first, 0.0106 for the second.

Going from A111U A120C A145U C150A C169G U176G to A111U A120C A145U C150A C169G U176A, the reverse-splicing fitness rises from 0.00518 to 0.0112.

Compared with A111G C150G C169G U176C, A111G C150G C169G U176A is higher in reverse-splicing fitness: 0.00463 for the first, 0.00723 for the second.

Compared with A111G C150G C169G U176G, A111U A120C A145C C150G C169U U176G is lower in reverse-splicing fitness: 0.00539 for the first, 0.00478 for the second.

Compared with A111U A120C A145C C150G C169U U176A, A111U A120C A145C C150G C169U U176C is higher in reverse-splicing fitness: 0.0109 for the first, 0.0144 for the second.

First: A111U A120C C169G U176C
Second: A111U A120C C169G U176A
The reverse-splicing fitness of the first is higher: 0.0168 for the first, 0.0144 for the second.

Compared with A111U A120C C169G U176G, A111U A120C A145C C150G C169G is higher in reverse-splicing fitness: 0.00402 for the first, 0.00716 for the second.

First: A111U A120C A145C C150G C169U
Second: A111U A120C A145C C150G C169A
The reverse-splicing fitness of the first is higher: 0.0236 for the first, 0.00818 for the second.

Compared with A111U A120C A145G C169U U176G, A111U A120C A145G C169U U176C is higher in reverse-splicing fitness: 0.00517 for the first, 0.046 for the second.

Compared with A111U A120C A145G C169U U176A, A111U A120C A145U C150U C169G U176A is lower in reverse-splicing fitness: 0.0335 for the first, 0.0113 for the second.

Going from A111U A120C A145U C150U C169G U176G to A111U A120C A145U C150U C169G U176C, the reverse-splicing fitness rises from 0.00445 to 0.0102.

Going from A111U A120C A145G C150A U176A to A111U A120C A145G C150A U176C, the reverse-splicing fitness rises from 0.0518 to 0.0785.

Going from A111U A120C A145G C150A U176G to A111U A120C A145G C150A C169U U176A, the reverse-splicing fitness rises from 0.013 to 0.0208.

Going from A111U A120C A145G C150A C169U U176G to A111U A120C A145G C150A C169U U176C, the reverse-splicing fitness rises from 0.00691 to 0.022.

Going from A111U A120C C150G C169G U176A to A111U A120C C150G C169G U176G, the reverse-splicing fitness falls from 0.00683 to 0.00508.

Compared with A111U A120C C150G C169G U176C, A111U A120C A145U C169U U176C is higher in reverse-splicing fitness: 0.00491 for the first, 0.0439 for the second.

Going from A111U A120C A145U C169U U176G to A111U A120C A145U C169U U176A, the reverse-splicing fitness rises from 0.00586 to 0.0319.

Compared with A111G A145U C169A U176G, A111G A145U C169A U176C is higher in reverse-splicing fitness: 0.00483 for the first, 0.0203 for the second.

First: A111U A120C A145C C150A C169A U176A
Second: A111U A120C A145C C150A C169A U176C
The reverse-splicing fitness of the first is higher: 0.0101 for the first, 0.00583 for the second.

Going from A111U A120C A145C C150A C169A U176G to A111U A120C A145U C150A C169A U176A, the reverse-splicing fitness rises from 0.00536 to 0.0108.

Compared with A111U A120C A145U C150A C169A U176G, A111U A120C A145U C150A C169A U176C is higher in reverse-splicing fitness: 0.00488 for the first, 0.00867 for the second.

First: A111U A120C C150A C169U U176C
Second: A111U A120C C150A C169U U176G
The reverse-splicing fitness of the first is higher: 0.0196 for the first, 0.00713 for the second.

First: A111U A120C C150A C169U U176A
Second: A111U A120C A145U C150G U176G
The reverse-splicing fitness of the first is higher: 0.0243 for the first, 0.00473 for the second.

First: A111U A120C A145U C150G U176C
Second: A111U A120C A145U C150G U176A
The reverse-splicing fitness of the first is higher: 0.0375 for the first, 0.0175 for the second.

Going from A111U A120C A145U C150U C169U to A111U A120C A145U C150U C169G, the reverse-splicing fitness falls from 0.112 to 0.00826.

Going from A111U A120C A145U C150U C169A to A111U A120C C150G U176C, the reverse-splicing fitness rises from 0.0105 to 0.0262.

Going from A111U A120C C150G U176G to A111U A120C C150G U176A, the reverse-splicing fitness rises from 0.00366 to 0.0104.

First: A111U A120C A145U C150A C169G
Second: A111U A120C A145U C150A C169A
The reverse-splicing fitness of the first is lower: 0.00755 for the first, 0.00875 for the second.

Compared with A111U A120C A145U C150A C169U, A111U A120C C150U C169U U176C is higher in reverse-splicing fitness: 0.0213 for the first, 0.0362 for the second.

First: A111U A120C C150U C169U U176A
Second: A111U A120C C150U C169U U176G
The reverse-splicing fitness of the first is higher: 0.0292 for the first, 0.00585 for the second.

First: A111G A145U C169U U176G
Second: A111G A145U C169U U176A
The reverse-splicing fitness of the first is lower: 0.00767 for the first, 0.0488 for the second.

Compared with A111G A145U C169U U176C, A111U A120C A145C C150A U176C is lower in reverse-splicing fitness: 0.0656 for the first, 0.0236 for the second.

Going from A111U A120C A145C C150A U176G to A111U A120C A145C C150A U176A, the reverse-splicing fitness rises from 0.00877 to 0.0267.

First: A111G C169A U176C
Second: A111G C169A U176G
The reverse-splicing fitness of the first is higher: 0.0226 for the first, 0.00542 for the second.

First: A111G C169A U176A
Second: A111G C150A C169G U176A
The reverse-splicing fitness of the first is lower: 0.0183 for the first, 0.0252 for the second.

Going from A111G C150A C169G U176G to A111G C150A C169G U176C, the reverse-splicing fitness rises from 0.00767 to 0.0218.

Going from A111U A120C A145C C150U C169A U176C to A111U A120C A145C C150U C169A U176A, the reverse-splicing fitness rises from 0.00539 to 0.00887.

Work on A111U A120C A145C C150U C169A U176G yielded a reverse-splicing fitness of 0.00529.
